Measurements published in patent publication US20200399355A1 (University of California, published 2020).
Square brackets hold non-standard residues; d marks the D form. Ends that are not written are not given here. Cit = NC(=O)NCCC[C@H](N)C(=O)O

T1: Human CV peptide 60-75 (biotinylated citrullinated vimentin peptide) (human, also: biotinylated, position not given here)
T1 construct: Captured through biotin on streptavidin (ELISA plate or SPR chip); also called human citrullinated vimentin
T1 peptide: VYAT[Cit]SSAV[Cit]L[Cit]SSVP

T2: Murine CV peptide 60-75 (biotinylated citrullinated vimentin peptide) (murine, also: biotinylated, position not given here)
T2 construct: Captured through biotin on streptavidin in ELISA; also called murine citrullinated vimentin
T2 peptide: AYVT[Cit]SSAV[Cit]L[Cit]SSVP


What was measured:
[1] = target: biotinylated CV peptide (Innovagen), CV60-75, on streptavidin; assay: flow cytometry of transduced Tregs stained with biotinylated-CV-peptide/streptavidin-FITC tetramer (y axis, 'CAR+ cells') and EGFRt antibody (x axis)
[2] = target: biotinylated CV peptide (Innovagen), CV60-75, on streptavidin; assay: flow cytometry of transduced Tregs stained with biotinylated-CV-peptide/streptavidin-FITC tetramer (y axis, 'CAR+ cells') and EGFRt antibody (x axis); number printed under the right half of the panel, taken as the lower right quadrant
[3] = target: T1, Human CV peptide 60-75 (biotinylated …); assay: SPR (Biacore T100), biotinylated CV peptide immobilised on streptavidin-coated chip, scFv injected
Description: (§1) Assessment of the binding specificity and affinity of BVCA1 antibodies and scFv to CV peptide: The binding specificity of BVCA1 IgG and scFv were assessed by ELISA. 96-well ELISA plates were coated 0/N at 4° C. with 50 μl Streptavidin at 10m/ml. Wells were washed three times and blocked with 2000 of 1×PBS 1% BSA for 1 h at RT and washed again. 1000 of biotinylated peptides at 10 ug/ml diluted in PBS 1% BSA were added and incubated for 1 h at RT. Wells were then washed three times. 1000 of BVCA1 IgG or scFv or isotype control were added at various concentrations (serial dilution). […] Reaction was stopped with 50 11.1 of NaOH 3M after 15 to 30 min and absorbance was read in a microplate reader at 405 nm. Kinetics and affinities of BVCA1 Ig and scFv to CV peptide were analyzed by surface plasmon resonance using Biacore T100 (GE healthcare). […]

[4] = target: T1, Human CV peptide 60-75 (biotinylated …); assay: SPR (Biacore T100), biotinylated CV peptide on streptavidin-coated sensor chip, scFv injected from 400nM down to 12.5nM; fit table under the sensorgrams, column KD (M)
Description: as §1

[5] = target: T1, Human CV peptide 60-75 (biotinylated …); assay: SPR (Biacore T100), biotinylated CV peptide on streptavidin-coated sensor chip, scFv injected from 400nM down to 12.5nM; fit table under the sensorgrams, column ka (1/Ms)
Description: as §1

[6] = target: T2, Murine CV peptide 60-75 (biotinylated …); assay: ELISA, biotinylated peptide on streptavidin-coated plate, scFv detected with anti-c-Myc 9E10 and anti-mouse IgG-AP, absorbance 405 nm
Description: as §1

[7] = target: T1, Human CV peptide 60-75 (biotinylated …); assay: as above
Description: as §1

[8] = target: T1, Human CV peptide 60-75 (biotinylated …); assay: SPR (Biacore T100), biotinylated CV peptide on streptavidin-coated sensor chip, scFv injected from 400nM down to 12.5nM; fit table under the sensorgrams, column kd (1/s)
Description: as §1

Row | % of cells CVpep-SA-FITC+ EGFRt+ (upper right quadrant) [1] [%] | % of cells CVpep-SA-FITC+ EGFRt- (upper left quadrant) [1] [%] | % of cells CVpep-SA-FITC- EGFRt+ (lower right quadrant; the number stands below the panel) [2] [%] | % of cells CVpep-SA-FITC- EGFRt+ (lower right quadrant) [1] [%] | Molecule | other results
1 | 0.5 | – | 63.4 | – | CD19.41BBz-CAR on human Tregs | –
2 | 47.5 | 0.6 | – | 20.7 | CV.28z-CAR (Anti-CV CAR-CD28z) on human Tregs (protein) EVKLIESGGGLVEPGRSLRLACTTSGFTFADYGLSWFRQGPGKGLEWVGFTGPKHLGETTECAPSVEDRCTISRDDSKSTVYLQMHRLQHEDTAVYFCVGPWFGDLLMWGQGTLVTVSSASSGGSTSGSGKPGSGEGSSGSARAIQMTQSPSSLSASVGDRVSITCRATQDISTSLGWYHQRPGKAPRLLIYGASKVQTGVPSRFSGNGSGTEFTLTISSLQPEDIGTYYCLQDDGFPFTVGQGTKLDIKRAAAIEVMYPPPYLDNEKSNGTIIHVKGKHLCPSPLFPGPSKPFWVLVVVGGVLACYSLLVTVAFIIFWVRSKRSRLLHSDYMNMTPRRPGPTRKHYQPYAPPRDFAAYRSRVKFSRSADAPAYQQGQNQLYNELNLGRREEYDVLDKRRGRDPEMGGKPRRKNPQEGLYNELQKDKMAEAYSEIGMKGERRRGKGHDGLYQGLSTATKDTYDALHMQALPPR | –

Continued, molecule first:

Row | Molecule | % of cells CVpep-SA-FITC+ EGFRt+ (upper right quadrant) [1] [%] | % of cells CVpep-SA-FITC+ EGFRt- (upper left quadrant) [1] [%] | % of cells CVpep-SA-FITC- EGFRt+ (lower right quadrant; the number stands below the panel) [2] [%] | % of cells CVpep-SA-FITC- EGFRt+ (lower right quadrant) [1] [%] | other results
3 | CD19.28z-CAR on human Tregs | 1.5 | 0.1 | 72.9 | – | –
4 | CV.41BBz-CAR (Anti-CV CAR-41BBz) on human Tregs (protein) EVKLIESGGGLVEPGRSLRLACTTSGFTFADYGLSWFRQGPGKGLEWVGFTGPKHLGETTECAPSVEDRCTISRDDSKSTVYLQMHRLQHEDTAVYFCVGPWFGDLLMWGQGTLVTVSSASSGGSTSGSGKPGSGEGSSGSARAIQMTQSPSSLSASVGDRVSITCRATQDISTSLGWYHQRPGKAPRLLIYGASKVQTGVPSRFSGNGSGTEFTLTISSLQPEDIGTYYCLQDDGFPFTVGQGTKLDIKRAAAIEVMYPPPYLDNEKSNGTIIHVKGKHLCPSPLFPGPSKPFWVLVVVGGVLACYSLLVTVAFIIFWVKRGRKKLLYIFKQPFMRPVQTTQEEDGCSCRFPEEEEGGCELRVKFSRSADAPAYQQGQNQLYNELNLGRREEYDVLDKRRGRDPEMGGKPRRKNPQEGLYNELQKDKMAEAYSEIGMKGERRRGKGHDGLYQGLSTATKDTYDALHMQALPPR | 55.4 | 0.6 | – | 18.9 | –
5 | BVCA1 scFv (soluble CV-specific scFv, VH-linker-VL) (scFv, Produced in E. coli periplasm; also called anti-CV scFv; single-chain variable fragment (scFv) synthesized from BVCA1 antibody; not shown: tags of the pSYN-expressed protein (detected with anti-c-Myc 9E10, purified on Ni-NTA)) scFv: EVKLIESGGGLVEPGRSLRLACTTSGFTFADYGLSWFRQGPGKGLEWVGFTGPKHLGETTECAPSVEDRCTISRDDSKSTVYLQMHRLQHEDTAVYFCVGPWFGDLLMWGQGTLVTVSSASSGGSTSGSGKPGSGEGSSGSARAIQMTQSPSSLSASVGDRVSITCRATQDISTSLGWYHQRPGKAPRLLIYGASKVQTGVPSRFSGNGSGTEFTLTISSLQPEDIGTYYCLQDDGFPFTVGQGTKLDIKRAAA | – | – | – | – | Kd [3]: 198 nM; Kd [4]: 198 nM; kon [5]: 19000 M⁻¹ s⁻¹; EC50 (read off the curve) [6]: ~2 ng/mL; EC50 (read off the curve) [7]: ~2 ng/mL; koff [8]: 0.00377 s⁻¹
